Assay results: publication PMC3382604

Tests used:
[1] = target: Dihydrodipicolinate synthase from Vitis vinifera (Vitis vinifera); assay: crystal structure; Vv-DHDPS in complex with pyruvate, 2.2 Å, space group P1, eight monomers (two tetramers) in the asymmetric unit
[2] = target: Dihydrodipicolinate synthase from Vitis vinifera (Vitis vinifera); assay: SAXS
[3] = target: Dihydrodipicolinate synthase from Vitis vinifera (Vitis vinifera); assay: AUC; sedimentation velocity, 13 µM initial protein, 40,000 rpm, 30°C, absorbance at 280 nm, 2DSA Monte Carlo analysis; without and with saturating (5 mM) pyruvate
[4] = target: Dihydrodipicolinate synthase from Bacillus anthracis (Bacillus anthracis); assay: AUC
[5] = target: Dihydrodipicolinate synthase from Bacillus anthracis (Bacillus anthracis); assay: SAXS

| Substance | stoichiometry N [1] | stoichiometry N [2] | stoichiometry N [3] | stoichiometry N [4] | stoichiometry N [5] |
| --- | --- | --- | --- | --- | --- |
| Dihydrodipicolinate synthase from Vitis vinifera (enzyme) | 4 | 4 | 4 |  |  |
| Dihydrodipicolinate synthase from Bacillus anthracis (enzyme) |  |  |  | 4 | 4 |
